Biological target: prefusion-stabilized SARS-CoV-2 spike protein (S-clamp) (SARS-CoV-2)
Experiment: SEC

Work on “prefusion-stabilized SARS-CoV-2 spike protein (S-clamp)” yielded a stoichiometry N of 3.
